Experimental data reported in patent publication US20230235000A1.

Biological target: recombinant mutant SOD1-G93A (His-tag) (human) (UniProt P00441)
Assay: cell-based or functional assay

Chain of recombinant mutant SOD1-G93A (His-tag) (human) (P00441 whole entry, stated change not applied): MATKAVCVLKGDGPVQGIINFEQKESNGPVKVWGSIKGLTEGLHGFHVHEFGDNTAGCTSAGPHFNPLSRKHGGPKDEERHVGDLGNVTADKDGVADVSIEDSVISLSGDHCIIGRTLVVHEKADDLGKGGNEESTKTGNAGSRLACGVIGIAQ

- filter trap density of pre-aggregated SOD1 G93A after 8 µM FAIM for 2.5 hr (fraction of buffer control): 0.5
Substance: recombinant human FAIM-S (His-tag) (from UniProt Q9NVQ4 1-179)
